Experimental data: publication PMC3765742 (2013)

Target: M6P/IGF-IIR (Homo sapiens, UniProt P11717)
Test: SPR

Sequence of M6P/IGF-IIR (P11717 41-2491): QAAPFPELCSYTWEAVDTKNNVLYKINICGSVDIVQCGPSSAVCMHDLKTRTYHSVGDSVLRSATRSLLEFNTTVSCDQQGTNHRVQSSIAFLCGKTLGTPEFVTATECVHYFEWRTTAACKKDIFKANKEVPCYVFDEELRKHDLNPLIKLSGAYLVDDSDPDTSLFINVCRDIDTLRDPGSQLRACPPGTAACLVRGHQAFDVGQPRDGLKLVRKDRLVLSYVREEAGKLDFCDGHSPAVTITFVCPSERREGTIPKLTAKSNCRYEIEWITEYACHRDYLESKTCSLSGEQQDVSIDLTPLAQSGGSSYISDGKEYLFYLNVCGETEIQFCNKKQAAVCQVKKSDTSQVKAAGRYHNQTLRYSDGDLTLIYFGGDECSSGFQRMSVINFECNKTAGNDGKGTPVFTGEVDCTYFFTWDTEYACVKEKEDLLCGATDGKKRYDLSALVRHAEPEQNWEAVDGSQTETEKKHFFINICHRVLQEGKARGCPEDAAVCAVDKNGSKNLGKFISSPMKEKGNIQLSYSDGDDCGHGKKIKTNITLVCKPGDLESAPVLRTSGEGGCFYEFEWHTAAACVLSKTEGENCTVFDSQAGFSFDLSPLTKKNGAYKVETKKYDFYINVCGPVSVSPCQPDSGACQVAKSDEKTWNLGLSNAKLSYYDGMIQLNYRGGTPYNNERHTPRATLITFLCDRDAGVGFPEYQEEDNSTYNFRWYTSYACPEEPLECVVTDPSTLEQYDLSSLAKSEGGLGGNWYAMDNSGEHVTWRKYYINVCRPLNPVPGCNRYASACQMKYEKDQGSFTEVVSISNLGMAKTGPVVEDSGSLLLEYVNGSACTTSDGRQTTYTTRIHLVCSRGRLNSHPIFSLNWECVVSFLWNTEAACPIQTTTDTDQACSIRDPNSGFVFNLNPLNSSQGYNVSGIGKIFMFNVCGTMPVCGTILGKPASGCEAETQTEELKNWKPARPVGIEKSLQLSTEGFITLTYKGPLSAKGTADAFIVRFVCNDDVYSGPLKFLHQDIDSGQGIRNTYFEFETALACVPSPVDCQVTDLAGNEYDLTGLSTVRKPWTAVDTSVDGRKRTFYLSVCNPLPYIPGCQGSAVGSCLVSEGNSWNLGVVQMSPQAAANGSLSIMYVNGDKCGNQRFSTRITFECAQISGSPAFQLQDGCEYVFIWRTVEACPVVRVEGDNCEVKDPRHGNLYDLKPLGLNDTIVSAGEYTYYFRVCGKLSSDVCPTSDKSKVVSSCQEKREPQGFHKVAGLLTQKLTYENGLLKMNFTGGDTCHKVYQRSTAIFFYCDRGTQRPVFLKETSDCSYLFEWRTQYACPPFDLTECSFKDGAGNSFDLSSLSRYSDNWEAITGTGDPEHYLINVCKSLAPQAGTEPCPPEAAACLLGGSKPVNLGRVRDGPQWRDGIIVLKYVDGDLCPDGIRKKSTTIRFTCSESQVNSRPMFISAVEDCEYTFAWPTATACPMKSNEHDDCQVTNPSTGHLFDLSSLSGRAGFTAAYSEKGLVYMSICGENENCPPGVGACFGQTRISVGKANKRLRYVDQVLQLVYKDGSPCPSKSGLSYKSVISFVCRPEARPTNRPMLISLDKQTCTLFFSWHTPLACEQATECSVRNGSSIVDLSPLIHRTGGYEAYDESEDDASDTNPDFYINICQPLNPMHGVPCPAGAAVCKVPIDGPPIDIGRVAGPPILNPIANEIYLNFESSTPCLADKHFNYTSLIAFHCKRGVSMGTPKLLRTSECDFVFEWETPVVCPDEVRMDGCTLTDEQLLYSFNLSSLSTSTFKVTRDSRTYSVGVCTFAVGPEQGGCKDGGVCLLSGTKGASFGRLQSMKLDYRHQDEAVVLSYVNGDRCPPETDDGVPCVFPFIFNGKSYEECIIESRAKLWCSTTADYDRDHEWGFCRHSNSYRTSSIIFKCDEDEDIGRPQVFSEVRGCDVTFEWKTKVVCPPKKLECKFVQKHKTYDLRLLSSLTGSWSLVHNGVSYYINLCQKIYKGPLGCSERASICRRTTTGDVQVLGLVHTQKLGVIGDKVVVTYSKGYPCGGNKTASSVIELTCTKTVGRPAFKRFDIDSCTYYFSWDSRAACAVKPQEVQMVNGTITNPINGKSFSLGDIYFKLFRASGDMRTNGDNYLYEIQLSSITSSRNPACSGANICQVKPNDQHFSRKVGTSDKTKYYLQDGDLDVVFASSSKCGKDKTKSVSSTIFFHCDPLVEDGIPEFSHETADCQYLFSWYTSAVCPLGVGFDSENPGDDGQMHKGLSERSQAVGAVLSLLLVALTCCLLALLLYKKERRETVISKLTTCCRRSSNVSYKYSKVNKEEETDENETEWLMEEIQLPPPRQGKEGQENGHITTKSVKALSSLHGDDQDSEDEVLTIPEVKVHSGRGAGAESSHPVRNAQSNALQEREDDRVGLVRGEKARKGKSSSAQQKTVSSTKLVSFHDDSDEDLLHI

B1: DPP-4 (protein)
chain: SRKTYTLTDYLKNTYRLKLYSLRWISDHEYLYKQENNILVFNAEYGNSSVFLENSTFDEFGHSINDYSISPDGQFILLEYNYVKQWRHSYTASYDIYDLNKRQLITEERIPNNTQWVTWSPVGHKLAYVWNNDIYVKIEPNLPSYRITWTGKEDIIYNGITDWVYEEEVFSAYSALWWSPNGTFLAYAQFNDTEVPLIEYSFYSDESLQYPKTVRVPYPKAGAVNPTVKFFVVNTDSLSSVTNATSIQITAPASMLIGDHYLCDVTWATQERISLQWLRRIQNYSVMDICDYDESSGRWNCLVARQHIEMSTTGWVGRFRPSEPHFTLDGNSFYKIISNEEGYRHICYFQIDKKDCTFITKGTWEVIGIEALTSDYLYYISNEYKGMPGGRNLYKIQLSDYTKVTCLSCELNPERCQYYSVSFSKEAKYYQLRCSGPGLPLYTLHSSVNDKGLRVLEDNSALDKMLQNVQMPSKKLDFIILNETKFWYQMILPPHFDKSKKYPLLLDVYAGPCSQKADTVFRLNWATYLASTENIIVASFDGRGSGYQGDKIMHAINRRLGTFEVEDQIEAARQFSKMGFVDNKRIAIWGWSYGGYVTSMVLGSGSGVFKCGIAVAPVSRWEYYDSVYTERYMGLPTPEDNLDHYRNSTVMSRAENFKQVEYLLIHGTADDNVHFQQSAQISKALVDVGVDFQAMWYTDEDHGIASSTAHQHIYTHMSHFIKQCFSLP
In the case of B1, the Kd is reported as 35.9 µM.
